Patent publication EP4740964A1, “NANO DELIVERY SYSTEM, PREPARATION METHOD THEREFOR AND USE THEREOF” (Chen, Haiyan, priority 2023, dated 2025)

T1: CD19 on the surface of Raji cells (UniProt P15391 20-556, limits assumed)
T1 construct: whole, on cells; also called antigen CD19
T1 sequence (looked up): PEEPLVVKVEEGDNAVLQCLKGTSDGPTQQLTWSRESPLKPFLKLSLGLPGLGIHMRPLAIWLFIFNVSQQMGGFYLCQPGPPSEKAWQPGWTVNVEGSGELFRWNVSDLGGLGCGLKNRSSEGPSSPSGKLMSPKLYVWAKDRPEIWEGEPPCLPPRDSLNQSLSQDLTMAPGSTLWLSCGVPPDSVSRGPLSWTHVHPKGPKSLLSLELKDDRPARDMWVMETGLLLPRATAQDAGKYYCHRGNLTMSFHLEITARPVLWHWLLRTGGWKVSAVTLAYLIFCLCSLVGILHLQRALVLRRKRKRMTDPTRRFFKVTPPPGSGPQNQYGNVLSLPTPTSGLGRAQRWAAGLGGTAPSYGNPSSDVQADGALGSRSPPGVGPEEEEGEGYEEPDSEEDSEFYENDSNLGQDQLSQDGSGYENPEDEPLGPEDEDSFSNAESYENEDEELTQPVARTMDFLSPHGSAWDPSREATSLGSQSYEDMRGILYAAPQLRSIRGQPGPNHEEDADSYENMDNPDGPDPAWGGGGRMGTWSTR


Tests used:
[1] = molecular target: T1, CD19 on the surface of Raji cells; assay: flow cytometry on Raji cells, Alexa Fluor 488 anti-human IgG detection
[2] = molecular target: T2, CD22 on the surface of Raji cells (UniProt P20273 20-847, limits assumed); assay: as above
T2 construct: whole, on cells; also called antigen CD22

| Binder | binding result [1] | binding result [2] |
| --- | --- | --- |
| CD19 IgG antibody (antibody, V domains shown) VH: QVQLVQSGAEVKKPGSSVKVSCKASGYAFSSYWMNWVRQAPGQGLEWMGQIWPGDSDTNYAQKFQGRVTITADESTSTAYMELSSLRSEDTAVYYCARRETTTVGRYYYAMDYWGQGTTVTVSS VL: DIQLTQSPSFLSASVGDRVTITCKASQSVDYSGDSYLNWYQQKPGKAPKLLIYDASNLVSGVPSRFSGSGSGTEFTLTISSLQPEDFATYYCQQSTENPWTFGGGTKLEIKR | binds |  |
| CD22 IgG antibody (antibody, V domains shown) VH: EVQLVQSGAEVKKPGASVKVSCKASGYRFTNYWIHWVRQAPGQGLEWIGGINPGNNYATYRRKFQGRVTMTADTSTSTVYMELSSLRSEDTAVYYCTREGYGNYGAWFAYWGQGTLVTVSS VL: DVQVTQSPSSLSASVGDRVTITCRSSQSLANSYGNTFLSWYLHKPGKAPQLLIYGISNRFSGVPDRFSGSGSGTDFTLTISSLQPEDFATYYCLQGTHQPYTFGQGTKVEIKR |  | binds |
| CD19 antibody antigen-binding fragment Fab (Fab, V domains shown, also called CD19 Fab) VH: QVQLVQSGAEVKKPGSSVKVSCKASGYAFSSYWMNWVRQAPGQGLEWMGQIWPGDSDTNYAQKFQGRVTITADESTSTAYMELSSLRSEDTAVYYCARRETTTVGRYYYAMDYWGQGTTVTVSS VL: DIQLTQSPSFLSASVGDRVTITCKASQSVDYSGDSYLNWYQQKPGKAPKLLIYDASNLVSGVPSRFSGSGSGTEFTLTISSLQPEDFATYYCQQSTENPWTFGGGTKLEIKR | binds |  |
